Two molecules from paper doi:10.1101/2020.09.30.320564 can be followed below.

Positions count from the first letter of the chain named.

One data set deals with T1, RRM domain (human, UniProt Q9BRS8 183-298).
T1 sequence: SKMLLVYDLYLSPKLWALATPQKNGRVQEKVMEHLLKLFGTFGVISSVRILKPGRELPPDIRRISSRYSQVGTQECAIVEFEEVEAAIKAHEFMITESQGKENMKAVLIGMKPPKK
In words: EMSA. (In general: Mobility shift assays separate free from complexed probe on a gel.)

Another data set concerns the target T2, La-module R121A (human, UniProt Q9BRS8 81-298, R121A).
T2 sequence: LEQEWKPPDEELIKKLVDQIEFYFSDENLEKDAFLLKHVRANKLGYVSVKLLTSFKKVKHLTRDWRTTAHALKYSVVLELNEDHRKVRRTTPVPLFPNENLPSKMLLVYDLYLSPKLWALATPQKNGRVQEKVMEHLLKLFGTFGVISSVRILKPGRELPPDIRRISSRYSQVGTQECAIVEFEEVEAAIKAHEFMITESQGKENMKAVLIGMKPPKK
In words: EMSA.

The target in another data set is T3, La-module N122A (human, UniProt Q9BRS8 81-298, N122A).
T3 sequence: T2 sequence with A41R, N42A
In words: EMSA.

In the next data set the target is T4, La-module K123A (human, UniProt Q9BRS8 81-298, K123A).
T4 sequence: T2 sequence with A41R, K43A
The data set can be described thus: EMSA.

The target of data set [1] is T5, La-module (La+RRM) (human, UniProt Q9BRS8 81-298).
T5 sequence: T2 sequence with A41R
In words: fluorescence polarization. For orientation: Fluorescence polarisation rises when a labelled molecule tumbles more slowly, as on binding a larger partner.

For data set [2], the target named is T5, La-module (La+RRM). The data set can be described thus: EMSA.
The target of another data set is La-domain (human, UniProt Q9BRS8 81-182). The data set can be described thus: EMSA.

B1: α2(I) 5'SL (structured_RNA)
RNA: CACAAGGAGUCUGCAUGUCUAAGUGCUAGACAUGCUCAGCUUUGUG
Consider B1, for which the binding result with RRM domain is listed as “no binding”; with La-module R121A, “binds”; in the data set with La-module N122A, “binds”; with La-module K123A, “binds”; in the data set with La-module (La+RRM) [1] it was “binds”.

B2: α1(I) 5'SL (structured_RNA)
RNA: CCACAAAGAGUCUACAUGUCUAGGGUCUAGACAUGUUCAGCUUUGUGG
B2: the binding result with La-module (La+RRM) [2] and with La-domain was “binds” throughout.
